B1: Rad23 (natural protein)
chain: MVSLTFKNFKKEKVPLDLEPSNTILETKTKLAQSISCEESQIKLIYSGKVLQDSKTVSECGLKDGDQVVFMVSQKKSTKTKVTEPPIAPESATTPGRENSTEASPSTDASAAPAATAPEGSQPQEEQTATTERTESASTPGFVVGTERNETIERIMEMGYQREEVERALRAAFNNPDRAVEYLLMGIPENLRQPEPQQQTAAAAEQPSTAATTAEQPAEDDLFAQAAQGGNASSGALGTTGGATDAAQGGPPGSIGLTVEDLLSLRQVVSGNPEALAPLLENISARYPQLREHIMANPEVFVSMLLEAVGDNMQDVMEGADDMVEGEDIEVTGEAAAAGLGQGEGEGSFQVDYTPEDDQAISRLCELGFERDLVIQVYFACDKNEEAAANILFSDHAD

Columns and labels:
Ddi1 = Ddi1 (UniProt P40087); assay: anti-Flag affinity purification of 26S proteasome, immunoblot densitometry; details: no detergent in binding; normalized to Rpn11FLAG; parent: est. 100; read off a plot
Chain of UniProt P40087 (P40087 whole entry, looked up): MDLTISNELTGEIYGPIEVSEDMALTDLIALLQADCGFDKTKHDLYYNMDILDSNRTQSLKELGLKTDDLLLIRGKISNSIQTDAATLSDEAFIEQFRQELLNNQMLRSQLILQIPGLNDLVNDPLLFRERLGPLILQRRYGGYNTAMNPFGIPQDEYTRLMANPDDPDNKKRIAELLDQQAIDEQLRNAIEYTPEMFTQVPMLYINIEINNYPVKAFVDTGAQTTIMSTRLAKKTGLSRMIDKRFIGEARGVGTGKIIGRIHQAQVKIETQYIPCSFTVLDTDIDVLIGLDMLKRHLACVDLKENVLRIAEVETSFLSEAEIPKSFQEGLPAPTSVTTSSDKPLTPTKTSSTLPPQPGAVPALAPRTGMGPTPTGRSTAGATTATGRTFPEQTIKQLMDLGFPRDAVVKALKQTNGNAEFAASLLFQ

Dsk2 = Dsk2 (UniProt P48510); assay: as above; details: no detergent in binding; normalized to Rpn11FLAG; parent: est. 100; read off a plot
Chain of UniProt P48510 (P48510 whole entry, looked up): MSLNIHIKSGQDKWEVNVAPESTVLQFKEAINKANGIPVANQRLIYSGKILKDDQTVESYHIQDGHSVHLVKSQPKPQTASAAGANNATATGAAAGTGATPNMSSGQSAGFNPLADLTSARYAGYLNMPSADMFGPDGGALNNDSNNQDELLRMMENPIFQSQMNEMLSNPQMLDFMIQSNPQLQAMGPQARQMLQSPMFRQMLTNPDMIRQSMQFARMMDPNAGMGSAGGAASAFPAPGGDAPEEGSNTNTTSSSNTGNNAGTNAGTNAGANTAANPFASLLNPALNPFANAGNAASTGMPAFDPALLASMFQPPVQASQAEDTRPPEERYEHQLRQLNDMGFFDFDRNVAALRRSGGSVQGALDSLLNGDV

Rad23 = Rad23 (UniProt P32628); assay: as above; details: no detergent in binding; normalized to Rpn11FLAG; parent: est. 100; read off a plot
Ubp6 = Ubp6 (UniProt P43593); assay: as above; details: no detergent in binding; normalized to Rpn11FLAG; parent: est. 100; read off a plot
[1] = molecular target: 26S proteasome from rpn13Δ cells (Rpn11-Flag) (S. cerevisiae) (UniProt P38764); assay: affinity purification with mass spectrometry; SILAC: rpn13Δ cells heavy, rpn13Δ rpn1-D517A cells light, mixed 1:1 before lysis; proteasomes purified on anti-Flag resin, eluted in 8 M urea
Chain of UniProt P38764 (P38764 whole entry, looked up, stated change not applied): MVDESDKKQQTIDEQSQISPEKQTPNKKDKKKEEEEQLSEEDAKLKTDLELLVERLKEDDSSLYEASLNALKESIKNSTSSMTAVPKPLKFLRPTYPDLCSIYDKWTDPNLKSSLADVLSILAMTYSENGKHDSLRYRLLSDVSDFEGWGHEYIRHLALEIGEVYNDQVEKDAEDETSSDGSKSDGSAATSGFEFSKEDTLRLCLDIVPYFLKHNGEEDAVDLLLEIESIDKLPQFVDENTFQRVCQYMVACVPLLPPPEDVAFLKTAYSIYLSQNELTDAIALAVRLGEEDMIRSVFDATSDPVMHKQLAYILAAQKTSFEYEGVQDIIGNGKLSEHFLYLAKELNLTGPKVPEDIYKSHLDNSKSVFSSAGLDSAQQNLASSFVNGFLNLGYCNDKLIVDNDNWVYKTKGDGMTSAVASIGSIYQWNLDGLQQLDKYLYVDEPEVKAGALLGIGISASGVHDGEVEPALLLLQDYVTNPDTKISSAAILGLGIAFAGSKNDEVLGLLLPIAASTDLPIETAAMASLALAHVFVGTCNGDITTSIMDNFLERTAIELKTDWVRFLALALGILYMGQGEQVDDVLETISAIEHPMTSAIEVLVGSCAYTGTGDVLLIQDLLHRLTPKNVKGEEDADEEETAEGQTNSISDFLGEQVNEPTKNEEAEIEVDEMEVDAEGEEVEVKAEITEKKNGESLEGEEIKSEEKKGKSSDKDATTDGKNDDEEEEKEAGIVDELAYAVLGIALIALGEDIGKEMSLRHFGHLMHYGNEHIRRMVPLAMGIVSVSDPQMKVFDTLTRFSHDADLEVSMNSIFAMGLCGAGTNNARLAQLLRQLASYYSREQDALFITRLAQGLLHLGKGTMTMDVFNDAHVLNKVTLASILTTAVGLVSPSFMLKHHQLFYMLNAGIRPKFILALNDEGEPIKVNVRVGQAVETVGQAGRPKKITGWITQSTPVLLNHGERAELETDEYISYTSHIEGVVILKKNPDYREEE

Molecule	percent of parent (% Protein Relative to WT) (Ddi1)	percent of parent (% Protein Relative to WT) (Dsk2)	percent of parent (% Protein Relative to WT) (Rad23)	percent of parent (% Protein Relative to WT) (Ubp6)	SILAC H/L ratio (rpn13Δ proteasomes, heavy, over rpn13Δ rpn1-D517A proteasomes, light) [1]
26S proteasome from rpn13Δ cells (Rpn11-Flag) (from UniProt P38764;P43588) D517A	29	61	76	110	
26S proteasome from rpn13Δ cells (Rpn11-Flag) (from UniProt P38764;P43588) K484A	80	86	95	110	
Ubp6 (from UniProt P43593 1-499) (enzyme)					0.98
B1					0.9

Source: PMC3126750
